Here are results for one protein from patent US20220125907A1 (VAXCYTE, published 2022).

The series deals with the molecule itself. Briefly: SEC-MALS of purified IpaB in solution (self-association).

B1: Invasion Plasmid Antigen B (IpaB), wild type, full length (other)
chain: MHNVNTTTTGLSLAKILASTELGDNTIQAGNDAANKLFSLTIADLTANKNINTTNAHSTSNILIPELKAPKSLNASSQLTLLIGNLIQILGEKSLTALTNKITAWKSQQQARQQKNLEFSDKINTLLSETEGLTRDYEKQINKLKNADSKIKDLENKINQIQTRLSELDPDSPEKKKLSREEIQLTIKKDAAVKDRTLIEQKTLSIHSKLTDKSMQLEKEIDSFSAFSNTASAEQLSTQQKSLTGLASVTQLMATFIQLVGKNNEESLKNDLALFQSLQESRKTEMERKSDEYAAEVRKAEELNRVMGCVGKILGALLTIVSVVAAAFSGGASLALADVGLALMVTDAIVQAATGNSFMEQALNPIMKAVIEPLIKLLSDAFTKMLEGLGVDSKKAKMIGSILGAIAGALVLVAAVVLVATVGKQAAAKLAENIGKIIGKTLTDLIPKFLKNFSSQLDDLITNAVARLNKFLGAAGDEVISKQIISTHLNQAVLLGESVNSATQAGGSVASAVFQNSASTNLADLTLSKYQVEQLSKYISEAIEKFGQLQEVIADLLASMSNSQANRTDVAKAILQQTTA
notes: also called WT IpaB; IpaB WT; not shown: histidine tag
For the protein B1, the binding result was “binds”.
